Results: patent US6613506B1, “Compositions and methods for inhibiting human immunodeficiency virus infection by down-regulating human cellular genes” (Subsidiary No. 3, Inc., priority 2000, dated 2003)

B1: CF-101: GSE, SEQ ID NO:3, sense; NADH dehydrogenase ND2 subunit gene (nucleic acid, listed as Homo sapiens)
sense: CATCAGCCCTTCTTAACATCTACTTCTACCTACGCCTAATCTACTCCACCTCAATCACACTACTCCCCATATCTAACAACGTAAAAATAAAATGACAGTTTGAGCATACAAAACCCACCCCATTCCTCCCCACACTCATCGCC
B2: CF-128: GSE, SEQ ID NO:6, sense; NADH dehydrogenase ND4 subunit gene (nucleic acid, listed as Homo sapiens)
sense: TCCTAGTCCTCACAATCATGGCAAGCCAGCGCCACTTATCCAGTGAACCACTATCACGAAAAAAACTCTACCTCTCTATACTAATCTCCCTACAAATCTCATTAATTATAATATTCACAACCACAGA
B3: CF-117: GSE, SEQ ID NO:4, antisense; NADH dehydrogenase ND6 subunit gene (nucleic acid, listed as Homo sapiens)
antisense: GTGAAAGAGTATGATGGGGTGGTGGTTGTCGTAAACTTTAATAGTGTAGGAAGCTGAATAATTTATAAAGGAGAGGGGACAGGGTTGATTCGGGAGGATC
B4: CF-025: GSE, SEQ ID NO:5, antisense; NADH dehydrogenase ND2 subunit gene (nucleic acid, listed as Homo sapiens)
antisense: GAAGAAGCAGGCCGGATGTCAGAGGGGTGCCTTGGGTAACCTCTGGGACTCAGAAGTGAAAGGGGGCTATTCCTAGTTTTATTGCTATAGCCATTATGATTATTAATGATGAGTAT
B5: CF-315: GSE, SEQ ID NO:1, antisense; NADH dehydrogenase ND6 subunit gene (nucleic acid, listed as Homo sapiens)
antisense: AGATCCTATTGGTGCGTGGGCTTTGTATGATTATGGGCGTAGATTAGTAGTAGTTACTGGTTGAACATTGTTTGTTGGTGTATATATTGTAATTGGGATTGCTCGGGGGAATAGGTTATGTGATTAGGAGTAGGG
B6: CF-061: GSE, SEQ ID NO:19; portion of an unknown human cellular gene (nucleic acid, listed as Homo sapiens)
DNA: ACACACAGACACACAGACACAGAGAGACACACAGACACACACACAGAGATACACAGAGACACAGACACAGAAACACTCTGAGAGACACACACACAGAGACACACAGACACACAGACACAGAGAGACACACAGACACACACACACAGAGATACACAGAGACACAGACACAGAAA
B7: CF-319: GSE, SEQ ID NO:2, sense; NADH dehydrogenase ND6 subunit gene (nucleic acid, listed as Homo sapiens)
sense: GATCCTCCCGAATCAACCCTGACCCCTCTCCTTCATAAATTATTCAGCTTCCTACACTATTAAAGTTTACCACAACCACCACGCCATCATACTCCTTCAC

How the values were obtained:
[1] = tested on: latent HIV provirus in OM10.1 cells; test: Induction of latent HIV provirus by TNF-α in OM10.1 cells (CD4 retention, p24); format: cell-based, HIV-1
Protocol: In order to determine p24 expression in HIV-infected cells, the cells were first washed twice with Assay Buffer. About 10^6 cells were suspended in 100 μL Assay Buffer, mixed with 2 mL of Ortho PermeaFix Solution (available from Ortho Diagnostics), and incubated for 40 min. at room temperature. After centrifugation at 1200 rpm for 4 min. at 4EC, the cells were resuspended in 2 mL Wash Buffer (500 mL PBS, 25 mL fetal bovine serum, 1.5% bovine serum albumin and 0.0055% EDTA) for 10 min. at room temperature. After centrifugation, the cells were resuspended in 50 ΦL Wash Buffer and mixed with 1:500 dilution of an IgG2a antibody for 20 min. at 4EC, followed by incubation with 5-10 ΦL of anti-p24 antibody (KC57-FITC, available from Coulter) for 30 min. at 4EC. The cells were then washed twice with Wash Buffer and analyzed by flow cytometry.
(§1) One strategy selected for GSEs which suppressed productive infection of cells by HIV. The second strategy selected for GSEs which suppressed induction of the latent provirus in OM10.1 cells. When OM10.1 cells were treated with TNF-α and stained with an antibody specific for the cell surface molecule CD4, a rapid loss of CD4 expression was observed (FIG. 1). In contrast, the vast majority of the uninduced OM10.1 cells retained CD4 expression. It is believed that activation of the latent virus in OM10.1 cells by TNF-α leads to the production of viral protein gp120, which binds to cytoplasmic CD4, thereby preventing its translocation to the cell surface. A diminution of CD4^+ OM10.1 cells also correlates with an increased production of viral protein p24 in the cells following TNF-α induction.
OM10.1 cells were cultured in RPMI 1640 glucose-free media prior to and during incubation with NADH dehydrogenase inhibitors and TNF-á induction. The inhibitors were added to the cells followed by TNF-á induction 1-2 hours later. The expression of CD4 by the cells was assessed by anti-CD4 antibody staining and flow cytometry after 24 hour incubation at 37° C.

[2] = tested on: HIV; test: Selection of GSEs from RFE libraries using OM10.1 and CEM-ss cells (strategy not stated per GSE); format: cell-based, HIV-1; conditions: GSEs matching NADH dehydrogenase subunit genes
Protocol: (§2) The libraries prepared from HL-60 cells according to the method of Section A of this Example, were transfected into the packaging cell line, PA317 (ATCC CRL #9078), and converted into retrovirus for infection of OM10.1 cells. Libraries in pLNCX vector were co-cultured and selected with G418. Libraries in pLNGFRM vector were transduced by spinoculation (centrifugation of target cells at 1200×g for 90 min. in the presence of filtered retroviral supernatant; Dunn et al., 1999, Gene Therapy 6: 133-137) and selected by FACS sorting of the NGFR^+ population. After selection, the OM10.1 cells harboring the entire RFE library were induced with 10 U/mL of TNF-α at 37EC, and 24 hours later, were stained with an antibody and sorted for CD4 expression. Genomic DNA from the CD4^+ cells was purified and used for PCR amplification of inserts with the vector-derived primers. The amplified mixture was digested with EcoRI and BamHI and cloned back into the retroviral vector. The selection was repeated for additional rounds.
Additionally, a normalized RFE library made from HeLa cells was transferred into CEM-ss cells and the neo resistant population was infected with TCID50 of 3000/10^6 cells of HIV-1IIIB. This RFE library was represented by 50×10^6 independent recombinant clones. Four and seven days after infection, a purified anti-CD4 monoclonal antibody, L77 (available from Becton Dickinson), was added at 5 Φg/mL to prevent syncytia formation. Syncytia formation is thought to be prevented by blocking the interaction between gp120 expressed on the surface of an infected cell and CD4 on the surface of an uninfected cell. […] At 10-12 days after infection, CD4^+, p24^− cell population representing uninfected cells were sorted. Genomic DNA from the CD4^+, p24^− cells was purified and used for PCR amplification of inserts with the vector-derived primers. The amplified mixture was digested with EcoRI and BamHI and cloned back into the retroviral vector. The selection was repeated for additional rounds.
as §1
GSEs derived from cDNAs representing expressed human cellular genes were identified and isolated from a RFE library made from HL-60 cells using HIV provirus activation in OM10.1 cells as a read-out. Following transfection of the entire library into a packaging cell line, retrovirus carrying the library was used to infect OM10.1 cells by co-cultivation or spinoculation, and NGFR selection was performed to ensure the retention of the viral vector. When the infected cells were treated with TNF-α a small number of residual CD4^+ cells were detected by an anti-CD4 antibody and sorted by FACS. The GSEs contained in these cells were recovered by PCR amplification and their nucleotide sequences determined.
A total of twenty GSEs were isolated by the two aforementioned selection strategies using OM10.1 and CEM-ss cells. […] CF-315 was further shown to protect uninfected human T cells from a productive HIV-1 infection (FIG. 2). In this experiment, the retroviral vector, pLNGFRM, containing the CF-315 nucleic acid molecule was transferred into CEM-ss cells followed by NGFR selection. Vector containing plasmid DNA (denoted LNGFRM) was used as negative control. […]

[3] = tested on: HIV-1SF2; test: Protection of GSE-transduced CEM-ss cells from HIV-1SF2 infection (intracellular p24); format: cell-based; conditions: HIV-1SF2 at TCID50 of 1000, versus vector (LNGFRM) control
Source text: FIG. 2 illustrates the percentage of intracellular p24^+ CEM-ss cells containing the CF-315 sequence (SEQ ID NO:1) after infection with HIV-1SF2 at a TCID50 of 1000. CEM-ss cells (10^6) containing the C-315 construct or control vector DNA (denoted as LNGFRM) were harvested on the indicated days post infection, stained with FITC-conjugated anti-p24 monoclonal antibody and analyzed by flow cytometry. Mock infected cells, -⋄-; LNGFRM vector-infected cells, -[…]-; and C-315 infected cells, -Δ-.
FIG. 3 illustrates the percentage of intracellular p24^+ CEM-ss cells containing various GSEs: CF-004 (SEQ ID NO:7), CF-025 (SEQ ID NO:5), CF-113 (SEQ ID NO:8) and CF-204 (SEQ ID NO:9) after infection with HIV-1SF2 at a TCID50 of 1000. Controls include mock-infected, vector (LNGFRM)-infected and HIV-infected CEM-ss cells.
FIG. 4 illustrates the percentage of intracellular p24^+ CEM-ss cells containing CF-001 (SEQ ID NO:10) after infection with HIV-1SF2 at a TCID50 of 1000. Controls include mock-infected and vector (LNGFRM)-infected cells. […]
In order to determine p24 expression in HIV-infected cells, the cells were first washed twice with Assay Buffer. […] The cells were then washed twice with Wash Buffer and analyzed by flow cytometry. […]

[4] = tested on: latent HIV-1 provirus in OM10.1 cells; test: Selection of GSEs in OM10.1 cells (TNF-α induction of latent provirus, CD4+ sorting); format: cell-based
Protocol: as §2, with “The amplified mixture was digested with EcoRI and BamHI and cloned back into the retroviral vector. The selection was repeated for additional rounds.” left out
GSEs derived from cDNAs representing expressed human cellular genes were identified and isolated from a RFE library made from HL-60 cells using HIV provirus activation in OM10.1 cells as a read-out. […] When the infected cells were treated with TNF-α a small number of residual CD4^+ cells were detected by an anti-CD4 antibody and sorted by FACS. The GSEs contained in these cells were recovered by PCR amplification and their nucleotide sequences determined.

Molecule | HIV-suppressive activity of the GSE and active orientation [2] | also measured
CCC1(CCC(C)C)C(=O)NC(=O)NC1=O [amytal, Amytal] |  | inhibition of induction of latent HIV provirus (retention of CD4 expression) ([1]; TNF-α-induced OM10.1 cells, 24 hour incubation, FIG. 5 / FIG. 6): inhibited the induction of latent HIV provirus in OM10.1 cells in a dose-dependent manner; intracellular p24 levels ([1]; treated cells compared with untreated controls): suppressed intracellular p24 levels
B1 | exhibits its HIV-suppressive activities in the sense orientation | 
B2 | suppresses HIV infection in the sense orientation | 
B3 | suppresses HIV activities as an antisense molecule | 
B4 | suppresses HIV infection as an antisense molecule | 
B5 | suppresses HIV replication as an antisense molecule | inhibition of productive HIV infection (intracellular p24+ cells) [3]: inhibited infection of human T cells by HIV-1SF2
B6 |  | selection of the GSE [4]: selected in OM10.1 cells
B7 | suppresses HIV replication in the sense orientation | 
